Results published in patent US10772928B2, “Modulation and detection of a neuronal alternative splicing regulatory network for treatment and diagnosis of neurological disorders” (The Governing Council of the University of Toronto, priority 2014, dated 2020).

T1: nSR100 (Mus musculus, UniProt Q8BKA3)
T1 construct: host or cells: mouse N2A cells
T1 sequence (Q8BKA3 1-608): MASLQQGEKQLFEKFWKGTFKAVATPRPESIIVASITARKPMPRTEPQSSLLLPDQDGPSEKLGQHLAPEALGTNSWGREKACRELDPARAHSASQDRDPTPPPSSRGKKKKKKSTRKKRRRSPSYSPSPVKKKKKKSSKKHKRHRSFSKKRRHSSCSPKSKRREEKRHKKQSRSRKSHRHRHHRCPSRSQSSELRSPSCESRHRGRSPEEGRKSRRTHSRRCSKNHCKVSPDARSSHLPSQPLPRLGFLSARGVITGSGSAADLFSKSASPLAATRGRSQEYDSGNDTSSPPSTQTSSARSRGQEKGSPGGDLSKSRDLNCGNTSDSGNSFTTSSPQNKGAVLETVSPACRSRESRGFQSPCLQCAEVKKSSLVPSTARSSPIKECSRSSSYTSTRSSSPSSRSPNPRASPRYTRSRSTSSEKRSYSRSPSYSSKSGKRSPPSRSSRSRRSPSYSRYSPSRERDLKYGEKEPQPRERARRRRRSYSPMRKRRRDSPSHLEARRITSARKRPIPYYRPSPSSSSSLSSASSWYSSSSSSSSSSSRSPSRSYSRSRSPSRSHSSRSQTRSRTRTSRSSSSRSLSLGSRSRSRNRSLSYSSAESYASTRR

B1: Luc7l2 (protein, UniProt Q7TNC4 1-392, looked up)
Putative RNA-binding protein …: MSAQAQMRAMLDQLMGTSRDGDTTRQRIKFSDDRVCKSHLLNCCPHDVLSGTRMDLGECLKVHDLALRADYEIASKEQDFFFELDAMDHLQSFIADCDRRTEVSKKRLAETQEEISAEVAAKAERVHELNEEIGKLLAKVEQLGAEGNVEESQKVMDEVEKARAKKREAEEVYRNSMPASSFQQQKLRVCEVCSAYLGLHDNDRRLADHFGGKLHLGFIEIREKLEELKRVVAEKQEKRNQERLKRREEREREEREKLRRSRSHSKNPKRSRSREHRRHRSRSMSRERKRRTRSKSREKRHRHRSRSSSRSRSRSHQRSRHSSRDRSRERSKRRSSKERFRDQDLASRDRDRSSRDRSPRDRDRKDKKRSYESANGRSEDRRSSEEREAGEI
B2: Prpf38b (protein, UniProt Q80SY5 2-542, looked up)
Pre-mRNA-splicing factor 38B: ANNSPALTGNSQPQHQAAAAVTQQQQQCGGGGGATKPAVSGKQGNVLPLWGNEKTMNLNPMILTNILSSPYFKVQLYELKTYHEVVDEIYFKVTHVEPWEKGSRKTAGQTGMCGGVRGVGTGGIVSTAFCLLYKLFTLKLTRKQVMGLITHTDSPYIRALGFMYIRYTQPPTDLWDWFESFLDDEEDLDVKAGGGCVMTIGEMLRSFLTKLEWFSTLFPRIPVPVQKNIDQQIKTRPRKIKKDGKEGIEEIDRHVERRRSRSPRRSLSPRRSPRRSRSRSHHREGHGSSSFDRELEREKERQRLEREAKEREKERRRSRSIDRGLDRRRSRSRERHRSRSRSRDRKGDRRDRDREREKENERGRRRDRDYDKERGSDRERDRERSRERSKEQRSRGDGEEKKHKEDKEDRRHRDDKKESKKKHSRSRSRERKHRSRSRNAGKRSRSRSKDKSSRHKNESKEKANKRSRSGSQGRTGSVEKRKREHSPSREKSRKRSRSQDRSHKREHNDSKDQSDRQDHQSSQSGEPESQEKEHKSKDETV
B3: Ccnb1 (protein, UniProt P24860 1-430, looked up)
G2/mitotic-specific cyclin-B1: MALRVTRNTKINAENKAKVSMAGAKRVPVTVTAASKPGLRPRTALGDIGNKVSEELQARVPLKREAKTLGTGKGTVKALPKPVEKVPVCEPEVELAEPEPEPELEHVREEKLSPEPILVDNPSPSPMETSGCAPAEEYLCQAFSDVILAVSDVDADDGADPNLCSEYVKDIYAYLRQLEEEQSVRPKYLQGREVTGNMRAILIDWLIQVQMKFRLLQETMYMTVSIIDRFMQNSCVPKKMLQLVGVTAMFIASKYEEMYPPEIGDFAFVTNNTYTKHQIRQMEMKILRVLNFSLGRPLPLHFLRRASKVGEVDVEQHTLAKYLMELSMLDYDMVHFAPSQIAAGAFCLALKILDNGEWTPTLQHYLSYSEDSLLPVMQHLAKNVVMVNCGLTKHMTVKNKYAASKHAKISTLAQLNCTLVQNLSKAVTKA
B4: U2af1 (protein, UniProt Q9D883 2-239, looked up)
Splicing factor U2AF 35 kDa …: AEYLASIFGTEKDKVNCSFYFKIGACRHGDRCSRLHNKPTFSQTIALLNIYRNPQNSSQSADGLRCAVSDVEMQEHYDEFFEEVFTEMEEKYGEVEEMNVCDNLGDHLVGNVYVKFRREEDAEKAVIDLNNRWFNGQPIHAELSPVTDFREACCRQYEMGECTRGGFCNFMHLKPISRELRRELYGRRRKKHRSRSRSRERRSRSRDRGRGGGGGGGGGGGRERDRRRSRDRERSGRF
B5: Ywhaq (protein, UniProt P68254 1-245, looked up)
14-3-3 protein theta: MEKTELIQKAKLAEQAERYDDMATCMKAVTEQGAELSNEERNLLSVAYKNVVGGRRSAWRVISSIEQKTDTSDKKLQLIKDYREKVESELRSICTTVLELLDKYLIANATNPESKVFYLKMKGDYFRYLAEVACGDDRKQTIENSQGAYQEAFDISKKEMQPTHPIRLGLALNFSVFYYEILNNPELACTLAKTAFDEAIAELDTLNEDSYKDSTLIMQLLRDNLTLWTSDSAGEECDAAEGAEN
B6: Csnk2a1 (protein, UniProt Q60737 1-391, looked up)
Casein kinase II subunit alpha: MSGPVPSRARVYTDVNTHRPREYWDYESHVVEWGNQDDYQLVRKLGRGKYSEVFEAINITNNEKVVVKILKPVKKKKIKREIKILENLRGGPNIITLADIVKDPVSRTPALVFEHVNNTDFKQLYQTLTDYDIRFYMYEILKALDYCHSMGIMHRDVKPHNVMIDHEHRKLRLIDWGLAEFYHPGQEYNVRVASRYFKGPELLVDYQMYDYSLDMWSLGCMLASMIFRKEPFFHGHDNYDQLVRIAKVLGTEDLYDYIDKYNIELDPRFNDILGRHSRKRWERFVHSENQHLVSPEALDFLDKLLRYDHQSRLTAREAMEHPYFYTVVKDQARMSSTSMAGGSTPVSSANMMSGISSVPTPSPLGPLAGSPVIAAANSLGIPVPAAAGAQQ
B7: Ccnb2 (protein, UniProt P30276 1-398, looked up)
G2/mitotic-specific cyclin-B2: MALLRRPTVSSDLKNIDTEVIPKAKSHVTIRRAVLEEIGNKVRNRTTQVAKKPQNTKVPALPTKVTNVNKQPKPTASVKPVQMEALAPKDRPPAPEDVSMKEESLCQAFSDALLCKIEDIDNEDRENPQLCSDYVKDIYQYLRQLEVLQSINPHFLDGRDINGRMRAILVDWLVQVHSKFRLLQETLYMCIAIMDRFLQAQLVCRKKLQLVGITALLLASKYEEMFSPNIEDFVYITDNAYTSSQIREMETLILKELKFELGRPLPLHFLRRASKAGEVDVEQHTLAKYLMELTLVDYDMVHYHPSQVAAAASCLSQKVLGQGKWNLKQQYYTGYMESEVLEVMQHMAKNVVKVNDNRTKFIAVKNKYASSRLLKISTIPQLNSKIIKDLASPLLGSP
B8: Puf60 (protein, UniProt Q3UEB3 1-564, looked up)
Poly(U)-binding-splicing …: MATATIALQVNGQQGGGSEPAAAAAAAAAAVVAAGDKWKPPQGTESIKMENGQSTGTKLGLPPLTPEQQEALQKAKKYAMEQSIKSVLVKQTIAHQQQQLTNLQMAAVTMGFGDPLSPLQSMAAQRQRALAIMCRVYVGSIYYELGEDTIRQAFAPFGPIKSIDMSWDSVTMKHKGFAFVEYEVPEAAQLALEQMNSVMLGGRNIKVGRPSNIGQAQPIIDQLAEEARAFNRIYVASVHQDLSDDDIKSVFEAFGKIKSCTLARDPTTGKHKGYGFIEYEKAQSSQDAVSSMNLFDLGGQYLRVGKAVTPPMPLLTPATPGGLPPAAAVAAAAATAKITAQEAVAGAAVLGTLATPGLVSPALTLAQPLGALPQAVMAAQAPGVITGVTPARPPIPVTIPSVGVVNPILASPPTLGLLEPKKEKEEEELFPESERPEMLSEQEHMSISGSSARHMVMQKLLRKQESTVMVLRNMVDPKDIDDDLEGEVTEECGKFGAVNRVIIYQEKQGEEEDAEIIVKIFVEFSMASETHKAIQALNGRWFGGRKVVAEVYDQERFDNSDLSA

Target: T1, nSR100
Test: AP-MS nSR100 interaction partners from mouse N2A cells (Table 5)
Format: binding
Conditions: for AvgP (average of the SAINT scores) / MaxP (maximal SAINT score): bait Srrm4; for FoldChange between the prey Avg spectra of the bait and control purifications: bait Srrm4, 0.1 added to prevent division by 0; for AvgSpec (average number of spectra per replicate): bait Srrm4, 2 replicates; for Spectra (number of spectra for the prey in the purification of the bait): AP-MS; for SpecSum: bait Srrm4, sum of spectra over 2 replicates
[1] = bait Srrm4, biological replicate 1 (first number of the cell)
[2] = bait Srrm4, biological replicate 2 (second number of the cell)

From the text: By applying affinity purification coupled to mass-spectrometry (AP-MS), several interaction nSR100 partner proteins were detected that provide insight into mechanisms of post-translational regulation of nSR100 levels.

Molecule	AvgP (average of the SAINT scores)	MaxP (maximal SAINT score)	FoldChange between the prey Avg spectra of the bait and control purifications	AvgSpec (average number of spectra per replicate)	Spectra (number of spectra for the prey in the purification of the bait) [1]	Spectra (number of spectra for the prey in the purification of the bait) [2]	SpecSum
B1	1	1	4.33	39	35	43	78
B2	1	1	60	6	6|6	6|6	12
B3	1	1	300	30	27	33	60
B4	1	1	4.6	23	22	24	46
B5	1	1	180	18	15	21	36
B6	1	1	4.95	49.5	44	55	99
B7	1	1	60	6	4	8	12
B8	1	1	5.07	73.5	55	92	147
